{
  "source": "paper PMC7660477",
  "assay_in_all_cases": "microtubule co-sedimentation (taxol-mediated polymerisation, sucrose gradient centrifugation) with western blot quantification",
  "key": {"[1]": {"target": "dynein intermediate chain (DYNC1I1/2) (UniProt O88485)", "conditions": "E18.5 forebrain; n = 3; mean ± s.e.m.; P<0.01; parent: est. 0.55; read off a plot"}, "VAPA": {"target": "VAPA (UniProt Q9WV55)", "conditions": "E18.5 forebrain, n = 3, mean ± s.e.m., parent: est. 0.30, read off a plot"}, "EZRIN": {"target": "EZRIN (UniProt P26040)", "conditions": "E18.5 forebrain, n = 3, mean ± s.e.m., parent: est. 0.10, read off a plot"}, "REEP1": {"target": "REEP1 (UniProt Q8BGH4)", "conditions": "E18.5 forebrain, n = 3, mean ± s.e.m., parent: est. 0.28, read off a plot"}, "KIF5C": {"target": "KIF5C (UniProt P28738)", "conditions": "E18.5 forebrain, n = 3, mean ± s.e.m., parent: est. 0.61, read off a plot"}, "VAPB": {"target": "VAPB (UniProt Q9QY76)", "conditions": "E18.5 forebrain, n = 3, mean ± s.e.m., parent: est. 0.27, read off a plot"}},
  "data": [
    {"substance": "microtubules from the forebrain of E18.5 R402H/R402H littermate controls (no Cre; wild-type Tuba1a expressed) (from UniProt P68369;P99024)", "values": [
      {"measurement": "response (ratio MT pellet/lysate)", "setting": "[1]", "result": 0.29},
      {"measurement": "response (ratio MT pellet/lysate)", "setting": "VAPA", "result": 0.34},
      {"measurement": "response (ratio MT pellet/lysate)", "setting": "EZRIN", "result": 0.12},
      {"measurement": "response (ratio MT pellet/lysate)", "setting": "REEP1", "result": 0.05},
      {"measurement": "response (ratio MT pellet/lysate)", "setting": "KIF5C", "result": 0.6},
      {"measurement": "response (ratio MT pellet/lysate)", "setting": "VAPB", "result": 0.14}
    ]}
  ]
}
